{"source": "patent US7429385", "molecular_target": "MOLT4 receptor (putative E2 receptor on human lymphoma T-cells, MOLT-4 cells) (human)", "assay": "cytofluorimetric binding assay on MOLT-4 cells", "data": [{"substance": "intracellularly produced truncated HCV E2 terminating at amino acid 715 (E2715), from CHO cell lysate (from UniProt P26664 384-715)", "values": [{"measurement": "fold more efficient binding to MOLT-4 cells than secreted E2", "value": 30, "unit": "fold"}]}]}
